Where two headings read alike, the source gives them in different places.
Experiments:
[1] = molecular target: MPER peptide PDT-081 (HIV-1); experiment: BLI on PDT-081
[2] = molecular target: MPER peptide PDT-081 (HIV-1)
[3] = molecular target: MPER peptide PDT-081 (HIV-1); experiment: ELISA on PDT-081
[4] = molecular target: MPER peptide PDT-081 (HIV-1); experiment: BLI (Octet RED96), Fab over biotinylated peptide on streptavidin sensors
[5] = molecular target: MPER peptide PDT-081 (HIV-1); experiment: ELISA on MPER (654-683) peptide, antibody titrated

Binder | Kd [1] [nM] | koff [1] [s⁻¹] | kon [1] [M⁻¹ s⁻¹] | Kd [2] [nM] | EC50 [3] [µg/mL] | Fold Increase (ELISA EC50 over H4K3) [3] [fold] | further results
H4K3_RS73PE Fab (Fab, V domains shown) VH: KVQLVQSGAELKKPWSSVRVSCKASGGSFSSYAFNWVRQAPGQRLEWLGGIVPLVSSTNYAQRFRGRVTISADPETSTVYLEMTGLTSADTAVYFCAREGEGWFGRPLRAFEFWGQGTLVTVST VL: EIVLTQSPGTFALSPGERATLSCRASQSVSGGALAWYQQKAGQAPRLLIYDTSGRATGVPGRFSGSGSETDFSLTISRLEPEDFAVYYCQQYGTSQSTFGQGTRLETR | 12.8 | 0.00051 | 39000 | 12.8 |  |  | 
PGZL1.H4K3 (antibody, V domains shown) VH: KVQLVQSGAELKKPWSSVRVSCKASGGSFSSYAFNWVRQAPGQRLEWLGGIVPLVSSTNYAQRFRGRVTISADRSTSTVYLEMTGLTSADTAVYFCAREGEGWFGRPLRAFEFWGQGTLVTVST VL: EIVLTQSPGTFALSPGERATLSCRASQSVSGGALAWYQQKAGQAPRLLIYGTSGRATGVPGRFSGSGSETDFSLTISRLEPEDFAVYYCQQYGTSQSTFGQGTRLETR |  |  |  |  | 0.039 |  | 
H4K3_RS73PE (antibody, V domains shown) VH: KVQLVQSGAELKKPWSSVRVSCKASGGSFSSYAFNWVRQAPGQRLEWLGGIVPLVSSTNYAQRFRGRVTISADPETSTVYLEMTGLTSADTAVYFCAREGEGWFGRPLRAFEFWGQGTLVTVST VL: EIVLTQSPGTFALSPGERATLSCRASQSVSGGALAWYQQKAGQAPRLLIYDTSGRATGVPGRFSGSGSETDFSLTISRLEPEDFAVYYCQQYGTSQSTFGQGTRLETR |  |  |  |  | 0.09 | 2.3 | 
H4K3_5M (antibody, V domains shown) VH: KVQLVQSGAELKKPWSSVRVSCKASGGEPESYAFNWVRQAPGQRLEWLGGIVPLVSSTNYAQRFRGRVTISADPETSTVYLEMTGLTSADTAVYFCAREGEGWFGRPLRAFEFWGQGTLVTVST VL: EIVLTQSPGTFALSPGERATLSCRASQSVSGGALAWYQQKAGQAPRLLIYDTSGRATGVPGRFSGSGSETDFSLTISRLEPEDFAVYYCQQYGTSQSTFGQGTRLETR |  |  |  |  | 0.083 | 2.1 | 
H4K3_SFS28EPE (antibody, V domains shown) VH: KVQLVQSGAELKKPWSSVRVSCKASGGEPESYAFNWVRQAPGQRLEWLGGIVPLVSSTNYAQRFRGRVTISADRSTSTVYLEMTGLTSADTAVYFCAREGEGWFGRPLRAFEFWGQGTLVTVST VL: EIVLTQSPGTFALSPGERATLSCRASQSVSGGALAWYQQKAGQAPRLLIYDTSGRATGVPGRFSGSGSETDFSLTISRLEPEDFAVYYCQQYGTSQSTFGQGTRLETR |  |  |  |  | 0.076 | 2 | 
PGZL1.H4K3 Fab (Fab, V domains shown) VH: KVQLVQSGAELKKPWSSVRVSCKASGGSFSSYAFNWVRQAPGQRLEWLGGIVPLVSSTNYAQRFRGRVTISADRSTSTVYLEMTGLTSADTAVYFCAREGEGWFGRPLRAFEFWGQGTLVTVST VL: EIVLTQSPGTFALSPGERATLSCRASQSVSGGALAWYQQKAGQAPRLLIYGTSGRATGVPGRFSGSGSETDFSLTISRLEPEDFAVYYCQQYGTSQSTFGQGTRLETR |  | 0.00051 | 68000 |  |  |  | Kd [4]: 7.5 nM; off rate faster than that of PGZL1 [4]: 8%; on rate faster than that of PGZL1 [4]: 24%
H4K3_SFS28EPE Fab (Fab, V domains shown) VH: KVQLVQSGAELKKPWSSVRVSCKASGGEPESYAFNWVRQAPGQRLEWLGGIVPLVSSTNYAQRFRGRVTISADRSTSTVYLEMTGLTSADTAVYFCAREGEGWFGRPLRAFEFWGQGTLVTVST VL: EIVLTQSPGTFALSPGERATLSCRASQSVSGGALAWYQQKAGQAPRLLIYDTSGRATGVPGRFSGSGSETDFSLTISRLEPEDFAVYYCQQYGTSQSTFGQGTRLETR | 15.1 | 0.00054 | 36000 | 15.1 |  |  | 
H4K3_5M Fab (Fab, V domains shown) VH: KVQLVQSGAELKKPWSSVRVSCKASGGEPESYAFNWVRQAPGQRLEWLGGIVPLVSSTNYAQRFRGRVTISADPETSTVYLEMTGLTSADTAVYFCAREGEGWFGRPLRAFEFWGQGTLVTVST VL: EIVLTQSPGTFALSPGERATLSCRASQSVSGGALAWYQQKAGQAPRLLIYDTSGRATGVPGRFSGSGSETDFSLTISRLEPEDFAVYYCQQYGTSQSTFGQGTRLETR | 23.4 | 0.00067 | 29000 | 23.4 |  |  | 
PGZL1 (antibody, V domains shown) VH: EVQLVQSGGEVKRPGSSVTVSCKATGGTFSTLAFNWVRQAPGQGPEWMGGIVPLFSIVNYGQKFQGRLTIRADKSTTTVFLDLSGLTSADTATYYCAREGEGWFGKPLRAFEFWGQGTVITVSS VL: DVVMTQSPGTLSLSPGERATLSCRASQSVSGGALAWYQQKPGQAPRLLIYDTSSRPTGVPGRFSGSGSGTDFSLTISRLEPEDFAVYYCQQYGTSQSTFGQGTRLEIK |  |  |  |  |  |  | EC50 (read off the curve) [5]: 0.02 µg/mL
PGZL1 Fab (Fab, V domains shown) VH: EVQLVQSGGEVKRPGSSVTVSCKATGGTFSTLAFNWVRQAPGQGPEWMGGIVPLFSIVNYGQKFQGRLTIRADKSTTTVFLDLSGLTSADTATYYCAREGEGWFGKPLRAFEFWGQGTVITVSS VL: DVVMTQSPGTLSLSPGERATLSCRASQSVSGGALAWYQQKPGQAPRLLIYDTSSRPTGVPGRFSGSGSGTDFSLTISRLEPEDFAVYYCQQYGTSQSTFGQGTRLEIK |  |  |  |  |  |  | Kd [4]: 9.9 nM

From patent publication US20240124560A1
